# B1: prf.GLFG_(52x12) (other)
# chain: GGLFGGNTQPATGGLFGGNTQPATGGLFGGNTQPATGGLFGGNTQPATGGLFGGNTQPATGGLFGGNTQPATGGLFGGNTQPATGGLFGGNTQPATGGLFGGNTQPATGGLFGGNTQPATGGLFGGNTQPATGGLFGGNTQPATGGLFGGNTQPATGGLFGGNTQPATGGLFGGNTQPATGGLFGGNTQPATGGLFGGNTQPATGGLFGGNTQPATGGLFGGNTQPATGGLFGGNTQPATGGLFGGNTQPATGGLFGGNTQPATGGLFGGNTQPATGGLFGGNTQPATGGLFGGNTQPATGGLFGGNTQPATGGLFGGNTQPATGGLFGGNTQPATGGLFGGNTQPATGGLFGGNTQPATGGLFGGNTQPATGGLFGGNTQPATGGLFGGNTQPATGGLFGGNTQPATGGLFGGNTQPATGGLFGGNTQPATGGLFGGNTQPATGGLFGGNTQPATGGLFGGNTQPATGGLFGGNTQPATGGLFGGNTQPATGGLFGGNTQPATGGLFGGNTQPATGGLFGGNTQPATGGLFGGNTQPATGGLFGGNTQPATGGLFGGNTQPATGGLFGGNTQPATGGLFGGNTQPATGGLFGGNTQPATGGLFGGNTQPATGGLFGGNTQPATC
# notes: C-terminal Cys residue fused for maleimide labelling; also called GLEBS-free, perfectly repeated FG variant; ultimately simplified FG domain
# B2: NES(PKI)-EGFP (other)
# chain: SNELALKLAGLDIN
# modifications: PKI-type NES core with short flanks, mEGFP carrier left out; the exact construct (PKI01, pTG-A450) is not printed and may be an optimised NES variant
# Key:
# [1] = target: T1, Alexa Fluor 488-labeled rat NTF2 (rat, UniProt P61972 1-127, Alexa Fluor 488 label (site not stated)); assay: partitioning into FG phase particles (FG particle permeation assay, confocal laser-scanning microscopy); FG domain diluted out of 4 M guanidinium hydrochloride into 50 mM Tris/HCl pH 7.5, 150 mM NaCl, 5 mM DTT, 5 µM FG domain; fluorescent probe in the buffer (mCherry 5 µM, probes with partition coefficient ≥2 at 0.75 µM); particles sedimented 60 min; ratio of fluorescence inside to outside the particles; 21 °C; settings: both partners purified
# T1 construct: nuclear transport factor 2 (NTF2), rat, 30-kDa nuclear transport receptor (dimer); The methods say that most NTRs were His-tagged fusions whose tags were cleaved off; also called Alexa488-labeled NTF2; source: bacterial expression construct, purified (native Ni(II) chelate chromatography)
# T1 sequence (P61972 whole entry, the tested form may be a part): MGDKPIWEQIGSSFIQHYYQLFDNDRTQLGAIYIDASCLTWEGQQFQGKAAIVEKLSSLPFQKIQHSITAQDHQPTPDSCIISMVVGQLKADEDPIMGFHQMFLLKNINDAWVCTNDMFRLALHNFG
# human Exportin 1 = target: T2, human Exportin 1 (human, UniProt O14980 1-1071); assay: NTR-dependent recruitment of a fluorescent cargo into FG phase particles (confocal laser-scanning microscopy); prf.GLFG_(52x12) phase challenged with import cargo (IBB-EGFP; IBB-MBP-GFP-M9) or export cargo (NES-EGFP + RanQ69L) in the absence or presence of the corresponding NTRs (Impβ, transportin, Xpo1); settings: both partners purified
# T2 construct: Exportin 1 (Xpo1/CRM1), human; also called hsXpo1; Xpo1; source: bacterial expression construct, purified (native Ni(II) chelate chromatography)
# T2 sequence (O14980 whole entry): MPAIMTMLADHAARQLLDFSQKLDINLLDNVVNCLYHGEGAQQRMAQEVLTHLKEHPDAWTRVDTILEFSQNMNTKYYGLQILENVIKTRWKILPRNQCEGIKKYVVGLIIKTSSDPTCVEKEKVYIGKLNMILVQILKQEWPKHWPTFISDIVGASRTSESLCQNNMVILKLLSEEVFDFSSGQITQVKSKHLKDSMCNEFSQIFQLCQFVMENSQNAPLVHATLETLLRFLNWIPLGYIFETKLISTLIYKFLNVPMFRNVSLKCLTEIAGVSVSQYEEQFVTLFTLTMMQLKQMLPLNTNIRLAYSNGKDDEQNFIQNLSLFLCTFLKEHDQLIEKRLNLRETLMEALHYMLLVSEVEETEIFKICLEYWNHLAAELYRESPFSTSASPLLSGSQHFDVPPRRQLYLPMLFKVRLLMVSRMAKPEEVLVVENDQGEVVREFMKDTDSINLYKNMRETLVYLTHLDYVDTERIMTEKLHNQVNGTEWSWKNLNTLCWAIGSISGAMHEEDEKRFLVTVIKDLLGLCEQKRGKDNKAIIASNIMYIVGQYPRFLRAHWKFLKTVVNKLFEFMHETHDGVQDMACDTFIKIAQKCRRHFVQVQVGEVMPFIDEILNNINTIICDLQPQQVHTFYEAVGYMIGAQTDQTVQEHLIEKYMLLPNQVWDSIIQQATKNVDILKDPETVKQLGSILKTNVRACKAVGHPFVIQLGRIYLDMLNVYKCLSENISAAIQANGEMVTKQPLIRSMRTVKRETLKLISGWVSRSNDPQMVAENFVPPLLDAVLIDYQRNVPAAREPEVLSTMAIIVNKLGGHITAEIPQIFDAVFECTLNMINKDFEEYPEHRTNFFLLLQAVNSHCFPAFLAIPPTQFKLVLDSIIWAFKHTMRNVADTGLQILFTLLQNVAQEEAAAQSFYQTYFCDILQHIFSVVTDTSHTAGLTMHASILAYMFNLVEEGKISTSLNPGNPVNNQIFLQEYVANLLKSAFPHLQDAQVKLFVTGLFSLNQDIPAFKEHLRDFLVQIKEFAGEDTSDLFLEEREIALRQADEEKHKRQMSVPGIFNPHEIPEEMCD
Binder,binding result [1],fold stimulation of the cargo's entry into the prf.GLFG_(52x12) phase by Xpo1 (with RanQ69L) (human Exportin 1) [fold]
B1,binds,
B2,,3500
